Experimental data: PMC5679657, “KSHV inhibits stress granule formation by viral ORF57 blocking PKR activation” (PLoS Pathogens, 2017)

B1: KSHV ORF57, untagged (pcDNA-ORF57) (natural protein)
chain: MVQAMIDMDIMKGILEDSVSSSEFDESRDDETDAPTLEDEQLSEPAEPPADERIRGTQSAQGIPPPLGRIPKKSQGRSQLRSEIQFCSPLSRPRSPSPVNRYGKKIKFGTAGQNTRPPPEKRPRRRPRDRLQYGRTTRGGQCRAAPKRATRRPQVNCQRQDDDVRQGVSDAVKKLRLPASMIIDGESPRFDDSIIPRHHGACFNVFIPAPPSHVPEVFTDRDITALIRAGGKDDELINKKISAKKIDHLHRQMLSFVTSRHNQAYWVSCRRETAAAGGLQTLGAFVEEQMTWAQTVVRHGGWFDEKDIDIILDTAIFVCNAFVTRFRLLHLSCVFDKQSELALIKQVAYLVAMGNRLVEACNLLGEVKLNFRGGLLLAFVLTIPGMQSRRSISARGQELFRTLLEYYRPGDVMGLLNVIVMEHHSLCRNSECAAATRAAMGSAKFNKGLFFYPLS
notes: KSHV ORF57, untagged, expressed from pcDNA-ORF57; also called untagged ORF57; source: HEK293, transfected, in lysate
B2: KSHV ORF57-Flag (wild type, pVM7) (natural protein)
chain: B1 chain
notes: KSHV ORF57 (mRNA transcript accumulation protein, MTA), wild type, expressed from pVM7; also called ORF57 wt; ORF57-wt-Flag; source: HEK293 or HeLa, transfected, in lysate

Experiments:
[1] = molecular target: T1, PKR ΔPK-Myc-Flag (aa 1-270) (UniProt P19525 1-270); test: co-IP; HEK293 extract with Myc-Flag-tagged PKR FL, ΔPK or ΔRBM mixed with extract with untagged ORF57, RNase A/T1-digested; IP with anti-Flag for PKR; blot anti-ORF57; conditions: partners not purified
T1 construct: PKR (EIF2AK2) aa 1-270, kinase domain deleted; made from pPKR-FL; also called N-terminal RBM domain of PKR; source: HEK293, transfected, in lysate

[2] = molecular target: T2, phosphorylated full-length PKR-Myc-Flag from arsenite-treated cells (UniProt P19525 1-551, phosphorylated; phospho-Thr 451 detected with anti-phosphorylated PKR (Thr 451)); test: co-IP; extract of HEK293 cells with PKR-Myc-Flag, untreated or treated with arsenite for 30 min, mixed with HEK293 extract with ORF57-Flag, RNase A/T1-digested; pulled down with anti-Myc beads; blots anti-Flag, anti-pPKR (Thr 451), anti-ORF57; conditions: partners not purified
T2 construct: protein kinase R (PKR, EIF2AK2), full length, from pPKR-FL, phosphorylated in arsenite-treated cells; Other phosphorylated sites are not determined in this experiment; also called p-PKR; phosphorylated FL PKR; source: HEK293, transfected, treated with arsenite for 30 min, in lysate
T2 sequence (P19525 whole entry): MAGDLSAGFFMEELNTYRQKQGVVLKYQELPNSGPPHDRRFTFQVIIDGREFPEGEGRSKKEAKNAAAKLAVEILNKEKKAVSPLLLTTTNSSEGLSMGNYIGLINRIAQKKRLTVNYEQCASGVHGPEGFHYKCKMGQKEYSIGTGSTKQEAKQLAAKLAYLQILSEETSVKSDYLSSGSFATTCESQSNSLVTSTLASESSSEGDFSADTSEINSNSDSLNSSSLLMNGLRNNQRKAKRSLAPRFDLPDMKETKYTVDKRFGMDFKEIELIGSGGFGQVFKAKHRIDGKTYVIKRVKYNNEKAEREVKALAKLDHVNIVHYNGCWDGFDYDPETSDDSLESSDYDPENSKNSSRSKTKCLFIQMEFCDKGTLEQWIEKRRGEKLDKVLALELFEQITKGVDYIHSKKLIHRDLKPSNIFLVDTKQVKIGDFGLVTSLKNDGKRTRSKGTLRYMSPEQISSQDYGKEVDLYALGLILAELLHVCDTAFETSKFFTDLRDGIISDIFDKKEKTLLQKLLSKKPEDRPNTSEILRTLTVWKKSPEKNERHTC

T1 sequence (P19525 1-270, stated change not applied): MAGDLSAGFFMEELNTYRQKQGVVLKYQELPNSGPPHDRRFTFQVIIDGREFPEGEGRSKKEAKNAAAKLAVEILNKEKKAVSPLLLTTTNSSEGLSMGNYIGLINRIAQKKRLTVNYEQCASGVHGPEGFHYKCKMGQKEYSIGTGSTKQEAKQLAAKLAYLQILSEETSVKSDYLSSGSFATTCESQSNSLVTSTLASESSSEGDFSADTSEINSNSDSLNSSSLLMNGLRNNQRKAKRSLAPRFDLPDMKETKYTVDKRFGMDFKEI

Row | Binder | fold binding relative to FL PKR [1] | fold binding relative to PKR from untreated cells [2]
1 | B1 | ~6.5 fold | –
2 | B2 | – | ~3 times
